Data as given in patent US20220153839A1 (NBE THERAPEUTICS, published 2022).
Substitutions are numbered along the chain they refer to.

B1: XBR1-402 chimeric rabbit/human Fab (Fab, V domains shown)
VH: QEQQKESGGGLFKPTDTLTLTCTASGFDISSYYMSWVRQAPGNGLEWIGAIGISGNAYYASWAKSRSTITRNTNLNTVTLKMTSLTAADTATYFCARDHPTYGMDLWGPGTLVTVSS
VL: SYELTQLPSVSVSLGQTARITCEGNNIGSKAVHWYQQKPGLAPGLLIYDDDERPSGVPDRFSGSNSGDTATLTISGAQAGDEADYYCQVWDSSAYVFGGGTQLTVTG
notes: Chimeric rabbit/human Fab with His tag, expressed in E. coli (pC3C-His); lambda light chain
B2: ERR1-TOP15 chimeric rabbit/human Fab (Fab, V domains shown)
VH: QEQLVESGGRLVTPGGSLTLTCAASGFSPSSYWMSWVRQAPGKGLEWIGAIYVDSGSAYYASWAKSRFTISKTSSTTVDLKMTSLTTEDTAIYFCARDGWGSDVWGPGTLVTISS
VL: SYELTQLPSVSVSLGQTARITCGGNSIGSKAVHWYQQKPGLAPGLLIYDDDERPSGVPDRFSGSNSGDTATLTISGAQAGDEADYYCQLWDSSAGAYVFGGGTQLTVTG
notes: Chimeric rabbit/human Fab with His tag, expressed in E. coli (pET11a); lambda light chain
B3: ERR1-TOP54 chimeric rabbit/human Fab (Fab, V domains shown)
VH: QSLEESGGRLVTPGTPLTLTCTASGFSLSDYYMSWVRQAPGEGLEWIGTIYGGSGNTWYATWAKGRFTISKTSTTVDLKITSPTTEDTATYFCARDFGLSTGGLWGPGTLVTISS
VL: B2 VL with H33N, G95R, Y97F
notes: as for B2
B4: ERR1-TOP43 chimeric rabbit/human Fab (Fab, V domains shown)
VH: QSLEESGGRLVTPGTPLTLTCTVSGFSLSSYWMSWVRQAPGKGLEWIGAIYGSGNTYYASWAKGRFTISKTSTTVDLKITSPTTEDTATYFCARDVHSTATDLWGPGTLVTISS
VL: B2 VL with S26N, H33N, D49N
notes: as for B2
B5: ERR1-306 chimeric rabbit/human Fab (Fab, V domains shown)
VH: QEQLKESGGGLVQPGGSLKLSCKASGFDLSNYGVSWVRQAPGKGLEWIGYIDPTFDYTYYASWVNGRFSISRENTQNTVSLQINSLTPADTATYFCARWVYGVDDYGDGNWLDLWGQGTLVTISS
VL: QFVLTQSPSVSAALGASAKLTCTLSSAHKTYTIDWYQQQQGEAPRYLMELKSDGSYTKGTGVPDRFSGSSSGADRYLIIPSVQADDEADYYCGTDYSGGYVFGGGTQLTVTG
notes: as for B2
B6: ERR1-324 chimeric rabbit/human Fab (Fab, V domains shown)
VH: QSLEESGGGLVQPGESLTLTCTVSGFSLSRNGMTWVRQAPGKGLEWIGIITSSGDKYYATWAKGRFTISKTSSTTVDLKMTSLTTEDTATYFCARGTVSSDIWGPGTLVTISS
VL: ELVLTQTPSPVSAAVGGTVTINCQASQSVYGNNELAWYQQKPGQPPKLLIYRASILTSGVPSRFKGSGSGTQFTLTISNVQREDAATYYCLGGYVSQSYRAAFGGGTELEIL
notes: Chimeric rabbit/human Fab with His tag, expressed in E. coli (pET11a); kappa light chain
B7: ERR1-TOP40 chimeric rabbit/human Fab (Fab, V domains shown)
VH: QEQLEESGGRLVTPGTPLTLTCTASGFSLSNYYMSWVRQAPGKGLEYIGIISSSGSTYYASWAKGRFTISKTSSTTVDLKITSPTTEDTATYFCARLYVSDSTANLWGPGTLVTVSS
VL: DIVLTQTPSSTSAAVGGTVTIKCQASQSIDSYLAWYQQKPGQPPKLLIYGASNLASGVPSRFSGSRSGTEYILTISGVQREDAATYYCLGGYPNYFHRTAFGGGTKLEIK
notes: as for B6

target: T1, hROR2 (human, UniProt Q01974); experiment: flow cytometry on 63-12 / hROR2 cells; anti-His Alexa Fluor 488
T1 construct: full length, on the cell surface; also called 63-12 / hROR2; ROR2 on T47D cells
Description: Flow cytometry: Cells were stained using standard flow cytometry methodology. Briefly, for purified anti-ROR1 Fab (FIG. 3), 0.1-1×10⁶ cells were stained with 1000 ng/100 μL of Fab on ice for 1 h. After washing twice with ice-cold flow cytometry buffer (PBS containing 1% (v/v) BSA, 0.1% sodium azide and 1 mM EDTA), the cells were incubated with a 1:1000 dilution of a mouse anti-His tag mAb conjugated to Alexa Fluor 488 (Qiagen) in 100 μL flow cytometry buffer on ice for 30 min. For purified anti-ROR1 IgG1 (FIG. 8), 0.1-1×10⁶ cells were blocked by 4% goat serum for 15 min at room temperature and then incubated with 100 ng/100 μL of IgG on ice for 1 h. After washing twice with ice-cold flow cytometry buffer, cells were stained with a 1:500 dilution of goat anti-human IgG, Fcγ pAbs conjugated to APC (Jackson ImmunoResearch) in 100 μL flow cytometry buffer on ice for 30 min. For commercial goat anti human ROR1 polyclonal antibody (FIG. 8), 0.1-1×10⁶ cells were stained with 200 ng/100 μL of Ab on ice for 1 h. […] Finally, 4′,6-diamidino-2-phenylindole (DAPI) was added to a final concentration of 100 ng/mL to exclude dead cells from the analysis. Cells were analyzed using a FACSCalibur instrument (BD Biosciences) and FlowJo analytical software (Tree Star, Ashland, Oreg.).

T1 sequence (Q01974 34-943 limits assumed): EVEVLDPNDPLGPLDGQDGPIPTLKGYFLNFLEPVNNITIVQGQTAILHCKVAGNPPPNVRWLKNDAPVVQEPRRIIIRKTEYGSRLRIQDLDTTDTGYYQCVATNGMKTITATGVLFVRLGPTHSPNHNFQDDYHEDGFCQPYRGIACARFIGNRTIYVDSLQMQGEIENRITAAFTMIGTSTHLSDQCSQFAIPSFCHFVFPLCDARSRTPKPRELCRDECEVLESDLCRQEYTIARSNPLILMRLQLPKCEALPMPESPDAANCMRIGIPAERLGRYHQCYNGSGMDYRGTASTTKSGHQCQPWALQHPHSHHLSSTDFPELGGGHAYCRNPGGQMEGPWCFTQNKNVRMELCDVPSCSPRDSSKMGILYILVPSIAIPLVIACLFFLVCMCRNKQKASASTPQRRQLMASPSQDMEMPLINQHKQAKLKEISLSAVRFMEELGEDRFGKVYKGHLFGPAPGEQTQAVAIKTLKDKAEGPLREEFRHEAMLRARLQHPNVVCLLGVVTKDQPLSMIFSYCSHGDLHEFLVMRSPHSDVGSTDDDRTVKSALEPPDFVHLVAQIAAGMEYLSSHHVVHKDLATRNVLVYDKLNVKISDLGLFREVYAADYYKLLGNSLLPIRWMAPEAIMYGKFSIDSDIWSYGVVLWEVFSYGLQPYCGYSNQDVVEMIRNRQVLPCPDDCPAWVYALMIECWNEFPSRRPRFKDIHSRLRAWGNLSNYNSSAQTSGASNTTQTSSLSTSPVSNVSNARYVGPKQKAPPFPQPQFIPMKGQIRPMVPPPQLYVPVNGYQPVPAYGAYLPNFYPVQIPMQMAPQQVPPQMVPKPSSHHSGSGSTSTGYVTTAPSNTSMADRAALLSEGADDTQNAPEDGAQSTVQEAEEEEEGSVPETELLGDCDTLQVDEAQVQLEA

| binding result | Binder |
| --- | --- |
| no binding (tested: 1000 ng/100 µL) | B1 |
| no binding (tested: 1000 ng/100 µL) | B2 |
| no binding (tested: 1000 ng/100 µL) | B3 |
| no binding (tested: 1000 ng/100 µL) | B4 |
| no binding (tested: 1000 ng/100 µL) | B5 |

target: T2, hFc-mROR1 (extracellular domain of mouse ROR1 fused to the Fc domain of human IgG1) (human; mouse, UniProt Q9Z139 30-406); experiment: ELISA; hFc fusion captured by coated anti-human IgG1 Fc; anti-His-HRP; A405
T2 construct: extracellular domain; not shown: Fc domain of human IgG1
Description: (§1) The binding of each chimeric rabbit/human Fab to hROR1 and mROR1 fused with human IgG1 Fc (hFc-hROR1 and hFc-mROR1) was analyzed by ELISA. hFc-ROR1 or hFc-mROR1 were captured by anti-human IgG1 Fc antibody immobilized on plate and then incubated with hROR1 specific Fabs comprising a His-tag via detection with mouse anti-His tag.
(§2) ELISA: For ELISA (FIG. 2), each well of a 96-well Costar 3690 plate (Corning, Corning, N.Y.) was coated with 100 ng anti-human IgG1 Fc in 25 μL coating buffer (0.1 M Na₂CO₃, 0.1 M NaHCO₃, pH 9.6) for 1 h at 37° C. After blocking with 150 μL 3% (w/v) BSA/TBS for 1 h at 37° C., hFc-hROR1 or hFc-mROR1 was captured following incubation at 100 ng/50 μL for 1 h at 37° C. Then 100 ng/50 μL of Fab was applied in each well at 37° C. 2 h later, 50 μL of a 1:1000 dilution of a mouse anti-His tag mAb conjugated to horse radish peroxidase (HRP) (R&D Systems, Minneapolis, Minn.) in 1% (w/v) BSA/TBS was used to detect the Fab. To determine the epitopes (FIG. 4), hFc fusion proteins containing different domains of hROR1 were coated directly, followed by incubation with Fab before detection by mouse anti-His tag mAb conjugated to HRP. Washing with PBS was repeated and colorimetric detection was performed using 2,2′-azino-bis(3-ethylbenzthiazoline)-6-sulfonic acid (Roche) as substrate according to the manufacturer's directions. The absorbance was measured at 405 nm using a SpectraMax M5 microplate reader (Molecular Devices; Sunnyvale, Calif.) and SoftMax Pro software (Molecular Devices).

T2 sequence (Q9Z139 30-406): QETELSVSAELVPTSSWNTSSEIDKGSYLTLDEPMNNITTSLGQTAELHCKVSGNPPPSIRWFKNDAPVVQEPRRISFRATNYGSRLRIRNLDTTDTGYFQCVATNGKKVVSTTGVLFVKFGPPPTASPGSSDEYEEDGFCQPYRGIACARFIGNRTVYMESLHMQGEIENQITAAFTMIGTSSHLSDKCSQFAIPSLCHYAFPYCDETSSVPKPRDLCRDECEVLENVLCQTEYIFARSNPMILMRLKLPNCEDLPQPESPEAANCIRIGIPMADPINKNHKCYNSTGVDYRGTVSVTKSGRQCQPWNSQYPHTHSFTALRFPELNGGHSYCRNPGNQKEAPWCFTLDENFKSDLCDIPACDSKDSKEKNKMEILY

| binding result | Binder |
| --- | --- |
| no binding (tested: 100 ng/50 µL) | B1 |
| no binding (tested: 100 ng/50 µL) | B2 |
| no binding (tested: 100 ng/50 µL) | B3 |
| no binding (tested: 100 ng/50 µL) | B4 |

target: T3, Ig (human, UniProt Q01973); experiment: ELISA on directly coated hFc fusion proteins of hROR1 domains; anti-His-HRP; A405
T3 construct: Ig domain of the extracellular domain; also called hFc-hROR1-Ig
Description: as §2

T3 sequence (Q01973 42-147 limits assumed): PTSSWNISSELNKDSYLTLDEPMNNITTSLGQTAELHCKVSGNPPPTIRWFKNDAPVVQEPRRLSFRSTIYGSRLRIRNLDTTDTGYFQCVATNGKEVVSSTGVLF

| binding result | Binder |
| --- | --- |
| no binding | B1 |
| no binding | B2 |
| no binding | B4 |
| no binding | B5 |

target: T4, Fr; experiment: as above
T4 construct: also called hFc-hROR1-Fr
Description: as §2

T4 sequence (chain, as listed by the source limits assumed): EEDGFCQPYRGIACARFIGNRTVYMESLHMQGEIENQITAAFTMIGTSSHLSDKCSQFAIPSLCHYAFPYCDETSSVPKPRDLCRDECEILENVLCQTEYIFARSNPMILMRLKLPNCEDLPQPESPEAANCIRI

| binding result | Binder |
| --- | --- |
| no binding | B6 |
| no binding | B7 |
| no binding | B2 |
| no binding | B3 |
| no binding | B4 |
| no binding | B5 |

target: T5, Kr (human, UniProt Q01973); experiment: as above
T5 construct: Kringle domain of the extracellular domain; also called hFc-hROR1-Kr
Description: as §2

T5 sequence (Q01973 312-391 limits assumed): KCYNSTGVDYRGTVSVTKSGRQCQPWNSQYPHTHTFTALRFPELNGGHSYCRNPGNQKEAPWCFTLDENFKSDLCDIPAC

| binding result | Binder |
| --- | --- |
| no binding | B6 |
| no binding | B7 |
| no binding | B1 |
| no binding | B2 |
| no binding | B3 |
| no binding | B4 |
| no binding | B5 |

target: T6, Fr + Ki (human, UniProt Q01973); experiment: as above
T6 construct: Frizzled and Kringle domains of the extracellular domain; also called hFc-hROR1-Fr-Ki
Description: as §2

T6 sequence (Q01973 165-391 limits assumed): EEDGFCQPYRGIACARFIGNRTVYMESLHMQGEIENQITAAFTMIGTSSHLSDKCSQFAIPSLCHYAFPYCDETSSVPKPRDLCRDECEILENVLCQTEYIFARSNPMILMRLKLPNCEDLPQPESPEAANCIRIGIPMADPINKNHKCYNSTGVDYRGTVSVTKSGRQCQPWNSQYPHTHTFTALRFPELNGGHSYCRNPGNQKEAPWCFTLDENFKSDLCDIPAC

| binding result | Binder |
| --- | --- |
| no binding | B6 |
| no binding | B7 |
| no binding | B1 |
| no binding | B2 |
| no binding | B3 |
| no binding | B4 |
| no binding | B5 |

target: T7, hFc-hROR1 (extracellular domain of human ROR1 fused to the Fc domain of human IgG1) (human, UniProt Q01973 30-406); experiment: SPR (Biacore X100); hFc-hROR1 captured by anti-human Fcγ antibody on CM5; Fab as analyte; 1:1 Langmuir fit
T7 construct: extracellular domain; also called hFc-ROR1; not shown: Fc domain of human IgG1
Description: (A) Shown are Biacore X100 sensorgrams obtained for the binding of each Fab to hFc-hROR1 captured by anti-human Fcγ antibody immobilized on CM5 chip after instantaneous background depletion. Fabs were injected at five different concentrations with the highest concentration indicated in table (B), one of the five concentrations was tested in duplicates. The equilibrium dissociation constant (Kd) was calculated from koff/kₒₙ (kₒₙ, association rate constant; koff, dissociation rate constant).
Surface plasmon resonance: Surface plasmon resonance for the measurement of the affinities of all Fabs to hFc-hROR1 and for epitope mapping studies were performed on a Biacore X100 instrument using Biacore reagents and software (GE Healthcare, Piscataway, N.J.). Anti-Human IgG (Fc) antibody was immobilized on a CM5 sensor chip following the instruction of Human Antibody Capture Kit (GE Healthcare, Piscataway, N.J.). The sensor chip included an empty flow cell for instantaneous background depletion. All binding assays used 1×HBS-EP+ running buffer (10 mM HEPES, 150 mM NaCl, 3 mM EDTA (pH 7.4), and 0.05% (v/v) Surfactant P20) and a flow rate of […]. […] The sensor chip was regenerated with […] from the Human Antibody Capture Kit without any loss of binding capacity. Calculation of association (kₒₙ) and dissociation (koff) rate constants was based on a 1:1 Langmuir binding model. The equilibrium dissociation constant (Kd) was calculated from koff/kₒₙ. For epitope mapping studies, each Fab was prepared at 500 nM alone in 1×HBS-EP+ running buffer and then injected in order as indicated in FIG. 5.

T7 sequence (Q01973 30-406): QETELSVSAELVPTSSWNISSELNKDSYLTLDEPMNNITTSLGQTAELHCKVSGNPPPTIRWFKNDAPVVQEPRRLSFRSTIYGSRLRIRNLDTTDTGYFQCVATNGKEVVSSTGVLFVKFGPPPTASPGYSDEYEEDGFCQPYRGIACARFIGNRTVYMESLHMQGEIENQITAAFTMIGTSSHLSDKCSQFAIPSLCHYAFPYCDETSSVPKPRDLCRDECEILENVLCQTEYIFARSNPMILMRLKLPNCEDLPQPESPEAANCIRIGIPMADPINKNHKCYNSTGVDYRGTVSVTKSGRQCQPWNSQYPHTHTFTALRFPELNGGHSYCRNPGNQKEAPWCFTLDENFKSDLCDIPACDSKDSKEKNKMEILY

| Kd [nM] | koff [s⁻¹] | kon [M⁻¹ s⁻¹] | Binder |
| --- | --- | --- | --- |
| 5.81 | 0.00643 | 1.11e+06 | B1 |
| 139 | 0.0654 | 469000 | B2 |
| 145 | 0.0688 | 475000 | B3 |
| 1.11 | 0.000501 | 451000 | B4 |

target: T8, hFc-hROR2 (extracellular domain of human ROR2 fused to the Fc domain of human IgG1) (human, UniProt Q01974 34-403); experiment: ELISA as for hFc-hROR1; third bar series, keyed 'hFc-hROR1' a second time on the sheet, taken as hFc-hROR2 by legend paragraph 27
T8 construct: extracellular domain; not shown: Fc domain of human IgG1
Description: as §1, §2

T8 sequence (Q01974 34-403): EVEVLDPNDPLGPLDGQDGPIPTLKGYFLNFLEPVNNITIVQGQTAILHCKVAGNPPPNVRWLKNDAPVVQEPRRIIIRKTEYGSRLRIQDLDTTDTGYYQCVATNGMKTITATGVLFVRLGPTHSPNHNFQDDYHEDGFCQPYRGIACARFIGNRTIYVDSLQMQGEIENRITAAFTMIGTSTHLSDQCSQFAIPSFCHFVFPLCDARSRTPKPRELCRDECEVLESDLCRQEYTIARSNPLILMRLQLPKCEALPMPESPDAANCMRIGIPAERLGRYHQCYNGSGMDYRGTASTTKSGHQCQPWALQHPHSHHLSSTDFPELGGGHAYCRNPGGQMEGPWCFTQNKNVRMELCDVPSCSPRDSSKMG

| binding result | Binder |
| --- | --- |
| no binding (tested: 100 ng/50 µL) | B6 |
| no binding (tested: 100 ng/50 µL) | B7 |
| no binding (tested: 100 ng/50 µL) | B1 |
| no binding (tested: 100 ng/50 µL) | B2 |
| no binding (tested: 100 ng/50 µL) | B3 |
| no binding (tested: 100 ng/50 µL) | B4 |
| no binding (tested: 100 ng/50 µL) | B5 |
